Source: PMC2853121

B1: Apt[C3-GFP] (structured_RNA)
RNA: GGGAGCCUGAUGGCAGGGCGAAUUGGGUGGGGAAAGUCCUUAAAAGAGGGCCACCACAGAAGCAAUGGGCUUCUGGACUCGGUCCCGCUCGGCUAGAAGAAUAUGACGGAUUGACCGUAUCAGGGUAGCCGAGC
B2: AptC3-2 (structured_RNA)
RNA: GGGAGAAUUCAACUGCCAUCUAGGCAAAUCCGCGAGCGCCGGUACCGGUGGCGCAUGCCCACACAGCACUAAACGAGUACUACAAGCUUCUGGACUCGGU

What was measured:
C3b = C3b (Homo sapiens, UniProt P01024;P01024 23-667;749-1663); assay: filter binding
iC3b [1] = biological target: T1, iC3b (Homo sapiens, UniProt P01024;P01024;P01024 23-667;749-1303;1321-1663); assay: filter binding
iC3b [2] = biological target: T1, iC3b; assay: EMSA

T1 sequence (P01024 23-667, chain 1 of 3): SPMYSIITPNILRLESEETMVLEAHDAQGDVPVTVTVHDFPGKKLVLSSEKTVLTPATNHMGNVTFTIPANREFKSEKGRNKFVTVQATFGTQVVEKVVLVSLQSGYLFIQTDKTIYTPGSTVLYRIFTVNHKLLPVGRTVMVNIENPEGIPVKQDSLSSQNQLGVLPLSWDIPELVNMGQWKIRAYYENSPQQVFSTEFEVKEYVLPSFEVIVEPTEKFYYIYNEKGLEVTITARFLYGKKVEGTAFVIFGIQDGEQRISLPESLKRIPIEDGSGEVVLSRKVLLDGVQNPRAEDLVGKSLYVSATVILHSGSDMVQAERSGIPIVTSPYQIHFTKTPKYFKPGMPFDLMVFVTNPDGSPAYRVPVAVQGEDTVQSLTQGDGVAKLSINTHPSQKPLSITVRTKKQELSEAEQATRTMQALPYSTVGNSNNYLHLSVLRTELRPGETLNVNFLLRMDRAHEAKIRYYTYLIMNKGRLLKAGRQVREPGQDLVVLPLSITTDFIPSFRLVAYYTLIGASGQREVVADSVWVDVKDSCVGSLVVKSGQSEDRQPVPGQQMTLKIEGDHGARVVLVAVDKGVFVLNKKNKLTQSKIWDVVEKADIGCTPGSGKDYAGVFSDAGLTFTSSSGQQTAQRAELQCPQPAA
T1 sequence (P01024 749-1303, chain 2 of 3): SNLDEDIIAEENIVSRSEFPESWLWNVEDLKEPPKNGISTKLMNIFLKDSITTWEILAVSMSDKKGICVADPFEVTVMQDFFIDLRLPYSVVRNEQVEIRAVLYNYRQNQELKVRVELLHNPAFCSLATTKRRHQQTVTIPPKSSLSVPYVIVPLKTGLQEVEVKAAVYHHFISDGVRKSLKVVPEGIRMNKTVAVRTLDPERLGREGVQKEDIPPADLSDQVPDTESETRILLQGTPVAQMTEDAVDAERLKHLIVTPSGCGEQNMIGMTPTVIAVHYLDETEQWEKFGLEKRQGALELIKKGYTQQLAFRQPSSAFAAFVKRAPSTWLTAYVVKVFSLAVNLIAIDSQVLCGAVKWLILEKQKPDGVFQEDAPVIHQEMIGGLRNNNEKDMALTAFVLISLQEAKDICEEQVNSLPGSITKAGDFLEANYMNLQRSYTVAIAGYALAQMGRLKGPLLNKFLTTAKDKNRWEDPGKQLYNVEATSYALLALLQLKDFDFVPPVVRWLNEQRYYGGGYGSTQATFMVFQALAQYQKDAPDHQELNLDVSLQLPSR
T1 sequence (P01024 1321-1663, chain 3 of 3): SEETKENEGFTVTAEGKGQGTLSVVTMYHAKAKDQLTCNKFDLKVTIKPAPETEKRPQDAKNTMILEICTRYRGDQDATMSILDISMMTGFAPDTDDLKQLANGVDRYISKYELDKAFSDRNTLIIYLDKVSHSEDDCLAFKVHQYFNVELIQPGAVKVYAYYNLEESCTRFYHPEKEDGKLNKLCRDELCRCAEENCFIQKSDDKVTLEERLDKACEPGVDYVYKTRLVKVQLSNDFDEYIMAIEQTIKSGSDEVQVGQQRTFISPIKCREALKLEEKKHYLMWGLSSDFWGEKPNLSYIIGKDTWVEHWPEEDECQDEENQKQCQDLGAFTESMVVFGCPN
Chain of C3b (P01024 23-667, chain 1 of 2): as the sequence (P01024 23-667, chain 1 of 3) above
Chain of C3b (P01024 749-1663, chain 2 of 2): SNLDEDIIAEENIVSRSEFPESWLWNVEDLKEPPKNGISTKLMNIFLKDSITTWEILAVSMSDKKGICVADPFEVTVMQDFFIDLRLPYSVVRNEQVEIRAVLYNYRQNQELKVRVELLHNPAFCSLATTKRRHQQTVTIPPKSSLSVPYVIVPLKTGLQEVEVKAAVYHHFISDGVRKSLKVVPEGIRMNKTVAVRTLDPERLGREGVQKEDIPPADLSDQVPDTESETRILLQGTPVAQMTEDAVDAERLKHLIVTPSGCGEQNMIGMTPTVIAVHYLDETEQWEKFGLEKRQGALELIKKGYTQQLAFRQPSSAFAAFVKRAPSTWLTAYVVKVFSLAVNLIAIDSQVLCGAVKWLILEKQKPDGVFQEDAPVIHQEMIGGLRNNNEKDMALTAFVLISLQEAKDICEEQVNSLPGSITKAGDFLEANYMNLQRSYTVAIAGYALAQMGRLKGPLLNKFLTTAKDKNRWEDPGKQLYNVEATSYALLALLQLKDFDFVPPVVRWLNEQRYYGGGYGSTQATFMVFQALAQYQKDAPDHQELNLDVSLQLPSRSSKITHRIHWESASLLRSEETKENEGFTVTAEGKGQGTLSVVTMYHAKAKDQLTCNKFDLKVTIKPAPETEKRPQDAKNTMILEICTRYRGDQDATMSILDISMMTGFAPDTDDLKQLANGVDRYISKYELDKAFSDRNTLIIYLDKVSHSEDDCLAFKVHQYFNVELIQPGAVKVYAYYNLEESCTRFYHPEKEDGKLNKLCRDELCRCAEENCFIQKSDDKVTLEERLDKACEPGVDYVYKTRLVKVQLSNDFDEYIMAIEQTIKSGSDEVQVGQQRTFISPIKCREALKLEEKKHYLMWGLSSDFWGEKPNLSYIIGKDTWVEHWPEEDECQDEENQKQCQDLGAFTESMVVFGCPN

Binder	binding result (C3b)	binding result (iC3b [1])	binding result (iC3b [2])
B1	binds	binds	
B2			no binding
